Experimental data from US20220025021A1 (BETH ISRAEL DEACONESS MEDICAL CENTER, published 2022).

Tests used:
Assay in all cases: cell-based or functional assay
[1] = biological target: HIV-1 Env of pseudovirus 0260.v5.c36 (HIV-1)
[2] = biological target: HIV-1 Env of pseudovirus BB1012-11.TC21 (HIV-1)
[3] = biological target: HIV-1 Env of pseudovirus SC422661.8 (HIV-1)
[4] = biological target: HIV-1 Env of pseudovirus RHPA4259.7 (HIV-1)
[5] = biological target: HIV-1 Env of pseudovirus CNE52 (HIV-1)
[6] = biological target: HIV-1 Env of pseudovirus Du172.17 (HIV-1)
[7] = biological target: HIV-1 pseudovirus SC05.8C11.2344 (HIV-1)
[8] = biological target: HIV-1 pseudovirus 6952.v1.c20 (HIV-1)
[9] = biological target: HIV-1 pseudovirus Ce1176_A3 (HIV-1)
[10] = biological target: HIV-1 pseudovirus AC10.0.29 (HIV-1)
[11] = biological target: HIV-1 pseudovirus 263-8 (HIV-1)
[12] = biological target: HIV-1 pseudovirus X1193_c1 (HIV-1)

Binder | neutralization IC50 [1] [µg/mL] | neutralization IC80 [1] [µg/mL] | neutralization IC50 [2] [µg/mL] | neutralization IC80 [2] [µg/mL] | neutralization IC50 [3] [µg/mL] | neutralization IC80 [3] [µg/mL] | neutralization IC50 [4] [µg/mL] | neutralization IC80 [4] [µg/mL] | neutralization IC50 [5] [µg/mL] | neutralization IC80 [5] [µg/mL] | neutralization IC50 [6] [µg/mL] | neutralization IC80 [6] [µg/mL] | further results
MS-88 (antibody, V domains shown) VH: QVQLVQSGPEVRKPGTSVKVSCKASGYTFKTYDLHWVRSVPGQGLQWMGWISHEGDKKVIVERFKAKVTITRDRSTNTAYLQLSGLTSGDTAVYYCAKGSKHRLRDYALYDDDGALNWAVDVDYLSNLEFWGQGTAVTVSS VL: DFVLTQSPHSLSVTPGESASISCKSSHSLIHGDRNNYLAWYVQKPGRSPQLLIYLASSRASGVPDRFSGSGSDKDFTLKISRVETEDVGTYYCMQGRESPWTFGQGTKVDIKR | 0.178 | 1.51 | 0.02 | 0.088 | 1.41 | > 25 | 0.504 | 2.51 | 5.86 | > 25 | > 25 | > 25 | –
MS-92 (antibody, V domains shown) VH: QVQLVQSGPEVRKPGTSVKVSCKAPGNTLKTYDLHWVRSVPGQGLEWMGWISHEGDKKVIVERFKAKVTIDRDRSTNTAYLQLSGLRSGDTAVYYCAKGSKHRLRDYALYDDDGALNWAVDVDYLSNLEFWGQGTAVTVSS VL: DIVLTQSPHSLSVTPGESASISCKSSHSLIHGDRNNYLAWYVQKPGRSPQLLIYLASSRASGVPDRFSGSGSDKDFTLKISRVETEDVGTYYCMQGRESPWTFGQGTKVDIKR | 0.044 | 0.35 | 0.029 | 0.127 | 1.53 | > 25 | 0.25 | 1.16 | 3.92 | > 25 | 6.85 | > 25 | –
MS-89 (antibody, V domains shown) VH: QVQLVQSGPEVRKPGTSVKVSCKAPGYTLKTYDLHWVRSVPGQGLQWMGWISHEGDKKVIVERFKAKVTITWDRSTNTAYLQLSGLTSGDTAVYYCAKGSKHRLRDYALYDDDGALNWAVDVDYLSNLEFWGQGTAVTVSS VL: DFVLTQSPLSLSVTPGESASISCKSSHSLIHGDRNNYLAWYVQKPGRSPQLLIYLASSRASGVPDRFSGSGSDKDFTLKISRVETEDVGTYYCMQGRESPWTFGQGTKVDIKR | 0.036 | 0.197 | 0.032 | 0.143 | 0.786 | > 25 | 0.29 | 1.04 | 2.34 | 23.8 | 11.9 | > 25 | –
MS-91 (antibody, V domains shown) VH: QVQLVQSGPEVRKPGTSVKVSCKASGYTLKTYDLHWVRSVPGQGLQWMGWISHEGDKKVIVERFKAKVTIDWDRSTNTAYLQLSGLTSGDTAVYYCAKGSKHRLRDYALYDDDGALNWAVDVDYLSNLEFWGQGTAVTVSS VL: DFVLTQSPLSLSVTPGESASISCKSSHSLIHGDRNNYLAWYVQKPGRSPQLLIYLASSRASGVPDRFSGSGSDTDFTLKISRVETEDVGTYYCMQGRESPWTFGQGTKVDIKR | 0.046 | 0.171 | 0.037 | 0.17 | 1.66 | 22.1 | 0.267 | 1.82 | 1.41 | 10.6 | 3.85 | 23.9 | –
MS-90 (antibody) VH: not shown VL: DFVLTQSPLSLSVTPGESASISCKSSHSLIHGDRNNYLAWYVQKPGRSPQLLIYLASSRASGVPDRFSGSGSDKDFTLKISRVETEDVGTYYCMQGRESPWTFGQGTKVDIKRTVAAPSVFIFPPSDEQLKSGTASVVCLLNNFYPREAKVQWKVDNALQSGNSQESVTEQDSKDSTYSLSSTLTLSKADYEKHKVYACEVTHQGLSSPVTKSFNRGEC | 0.03 | 0.168 | 0.044 | 0.204 | 1.48 | > 25 | 0.254 | 1.33 | 1.05 | 8.56 | 4.07 | 15.6 | –
MS-66 (antibody) VH: not shown VL: DIVLTQSPHSLSVTPGESASISCKSSHSLIHGDRNNYLAWYVQKPGRSPQLLIYLASSRASGVPDRFSGSGSDKDFTLKISRVETEDVGTYYCMQGRESPWTFGQGTKVDIKRTVAAPSVFIFPPSDEQLKSGTASVVCLLNNFYPREAKVQWKVDNALQSGNSQESVTEQDSKDSTYSLSSTLTLSKADYEKHKVYACEVTHQGLSSPVTKSFNRGEC [MS-66, listing 1 of 2 here] | 0.024 | 0.092 | 0.017 | 0.074 | 0.902 | 5.82 | 0.238 | 0.745 | 0.408 | 3.74 | 2.08 | 11.3 | –
MS-66 (antibody) VH: not shown VL: DIVLTQSPHSLSVTPGESASISCKSSHSLIHGDRNNYLAWYVQKPGRSPQLLIYLASSRASGVPDRFSGSGSDKDFTLKISRVETEDVGTYYCMQGRESPWTFGQGTKVDIKRTVAAPSVFIFPPSDEQLKSGTASVVCLLNNFYPREAKVQWKVDNALQSGNSQESVTEQDSKDSTYSLSSTLTLSKADYEKHKVYACEVTHQGLSSPVTKSFNRGEC [MS-66, listing 2 of 2 here] | – | – | – | – | – | – | – | – | – | – | – | – | IC50 (neutralization in TZM.bl cells) [7]: 0.811 µg/mL; IC80 (neutralization in TZM.bl cells) [7]: 2.54 µg/mL; IC50 (neutralization in TZM.bl cells) [8]: 0.284 µg/mL; IC80 (neutralization in TZM.bl cells) [8]: > 25 µg/mL; IC50 (neutralization in TZM.bl cells) [9]: 0.165 µg/mL; IC80 (neutralization in TZM.bl cells) [9]: 5.43 µg/mL; IC50 (neutralization in TZM.bl cells) [10]: 0.035 µg/mL; IC80 (neutralization in TZM.bl cells) [10]: 0.213 µg/mL; IC50 (neutralization in TZM.bl cells) [11]: 0.017 µg/mL; IC80 (neutralization in TZM.bl cells) [11]: 0.06 µg/mL; IC50 (neutralization in TZM.bl cells) [12]: 0.086 µg/mL; IC80 (neutralization in TZM.bl cells) [12]: 0.322 µg/mL
MS-67 (antibody) VH: not shown VL: DFVLTQSPLSLSVTPGESASISCKSSHSLIHGDRNNYLAWYVQKPGRSPQLLIYLASSRASGVPDRFSGSGSDKDFTLKISRVETEDVGTYYCMQGRESPWTFGQGTKVDIKRTVAAPSVFIFPPSDEQLKSGTASVVCLLNNFYPREAKVQWKVDNALQSGNSQESVTEQDSKDSTYSLSSTLTLSKADYEKHKVYACEVTHQGLSSPVTKSFNRGEC [MS-67, listing 1 of 2 here] | 0.023 | 0.088 | 0.017 | 0.071 | 0.549 | 2.83 | 0.129 | 0.706 | 0.212 | 1.81 | 1.76 | 9.31 | –
MS-67 (antibody) VH: not shown VL: DFVLTQSPLSLSVTPGESASISCKSSHSLIHGDRNNYLAWYVQKPGRSPQLLIYLASSRASGVPDRFSGSGSDKDFTLKISRVETEDVGTYYCMQGRESPWTFGQGTKVDIKRTVAAPSVFIFPPSDEQLKSGTASVVCLLNNFYPREAKVQWKVDNALQSGNSQESVTEQDSKDSTYSLSSTLTLSKADYEKHKVYACEVTHQGLSSPVTKSFNRGEC [MS-67, listing 2 of 2 here] | – | – | – | – | – | – | – | – | – | – | – | – | IC50 (neutralization in TZM.bl cells) [7]: 0.631 µg/mL; IC80 (neutralization in TZM.bl cells) [7]: 2.14 µg/mL; IC50 (neutralization in TZM.bl cells) [8]: 0.28 µg/mL; IC80 (neutralization in TZM.bl cells) [8]: 7.89 µg/mL; IC50 (neutralization in TZM.bl cells) [9]: 0.105 µg/mL; IC80 (neutralization in TZM.bl cells) [9]: 1.9 µg/mL; IC50 (neutralization in TZM.bl cells) [10]: 0.031 µg/mL; IC80 (neutralization in TZM.bl cells) [10]: 0.186 µg/mL; IC50 (neutralization in TZM.bl cells) [11]: 0.011 µg/mL; IC80 (neutralization in TZM.bl cells) [11]: 0.037 µg/mL; IC50 (neutralization in TZM.bl cells) [12]: 0.075 µg/mL; IC80 (neutralization in TZM.bl cells) [12]: 0.303 µg/mL
